The target of this test is GST-DIAPH3-NT. Nature of the test: GST pull-down with immunoblot quantification. Particulars: n = 3, parent: est. 1.0, read off a plot.

This passage reports ratio to parent results from article PMC5691081.

Turning to “MBP-anillin (1–151) wild type (from UniProt Q9NQW6) Q42A”, the ratio to parent came to 0.82.

Consider “MBP-anillin (1–151) wild type (from UniProt Q9NQW6) R41A”, for which the ratio to parent amounted to 0.59.

On to “MBP-anillin (1–151) wild type (from UniProt Q9NQW6) P43A; L44A”, for which the ratio to parent is 0.38.

For “MBP-anillin (1–151) wild type (from UniProt Q9NQW6) K38A; R39A”, the ratio to parent was determined as 0.94.

As to “MBP-anillin (1–151) wild type (from UniProt Q9NQW6) R41A; Q42A; P43A; L44A”, the ratio to parent (p = 0.0072 vs wt) is 0.03.
